Data published in the supplement of paper PMC7877785.
± gives the uncertainty stated by the source.

Assay: self-splicing fitness, log relative to wild type (ln ratio); higher = more splicing; Tetrahymena group I intron in knt gene, E. coli kanamycin selection, DiMSum; sequences stand for … in CUCUCU…GGAGGGAAAAGUUAUCAGGCAUGCACCUGGUAGCUAGUCUUUAAACCAAUAGAUUGCAUCGGUUUAAAAGGCAAGACCGUCAAAUUGCGGGAAAGGGGUCAACAGCCGUUCAGUACCAAGUCUCAGGGGAAACUUUGAGAUGGCCUUGCAAAGGGUAUGGUAAUAAGCUGACGGACAUGGUCCUAACCACGCAGCCAAGUCCUAAGUCAACAGAUCUUCUGUUGAUAUGGAUGCAGUUCACAGACUAAAUGUCGGUCGGGGAAGAUGUAUUCUUCUCAUAAGAUAUAGUCGGACCUCUCCUUAAUGGGAGCUAGCGGAUGAAGUGAUGCAACACUGGAGCCGCUGGGAACUAAUUUGUAUGCGAAAGUAUAUUGAUUAGUUUUGGAGUACUCGUGGUCG
How it was run: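 Six replicate transformations of E. coli BL21(DE3) with a pET-22b(+) library were grown overnight at 37°C or 30°C. The library randomised all eight P1ex-region intron nucleotides, the intron lying in the knt kanamycin-resistance gene, and plates were LB agar with or without 25 μg/mL kanamycin plus 100 μg/mL carbenicillin, 50 μM IPTG and 0.2% rhamnose. Pooled colonies were amplicon-sequenced on an Illumina HiSeq 2500, and fitness is the DiMSum error-weighted combination of wild-type-normalised replicate fold changes, kanamycin versus none.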

| Sequence | self-splicing fitness (ln) (30 °C) | self-splicing fitness (ln) (37 °C) |
| --- | --- | --- |
| GUAUAGCAAUAUUACGGAAC | -3.32 ± 0.15 | -1.77 ± 0.13 |
| GUAUAGCAAUAUUACGGCAC | -0.331 ± 0.3 | – |
| GUAUAGCAAUAUUACGGGAA | – | -2.54 ± 0.4 |
| GUAUAGCAAUAUUACGGUGU | -3.29 ± 0.15 | -1.38 ± 0.11 |
| GUAUAGCAAUAUUACGUGAA | -3.69 ± 0.25 | -1.67 ± 0.17 |
| GUAUAGCAAUAUUACGUGCU | -2.77 ± 0.16 | -1.91 ± 0.22 |
| GUAUAGCAAUAUUACGUGUC | -4.58 ± 0.39 | -1.42 ± 0.14 |
| GUAUAGCAAUAUUACGUGUG | -3.28 ± 0.14 | -2 ± 0.13 |
| GUAUAGCAAUAUUACGUUUU | -1.97 ± 0.2 | -2.37 ± 0.28 |
| GUCAAGCAAUAUUACGAAGG | -4.64 ± 0.2 | -3.95 ± 0.36 |
| GUCAAGCAAUAUUACGAAGU | -2.51 ± 0.092 | -1.16 ± 0.1 |
| GUCAAGCAAUAUUACGACCU | -3.31 ± 0.41 | -0.756 ± 0.46 |
| GUCAAGCAAUAUUACGAGUU | -3.15 ± 0.15 | -0.638 ± 0.093 |
| GUCAAGCAAUAUUACGAUUC | -1.76 ± 0.17 | 0.0525 ± 0.15 |
| GUCAAGCAAUAUUACGCAAC | -4.34 ± 0.26 | -2.36 ± 0.34 |
| GUCAAGCAAUAUUACGCCCU | -0.585 ± 0.16 | 0.51 ± 0.15 |
| GUCAAGCAAUAUUACGCCGC | -2.83 ± 0.28 | -2.35 ± 0.46 |
| GUCAAGCAAUAUUACGCGCG | -2 ± 0.13 | -1.32 ± 0.15 |
| GUCAAGCAAUAUUACGCGGG | -4.2 ± 0.2 | -3.33 ± 0.24 |
| GUCAAGCAAUAUUACGGCCC | -0.498 ± 0.33 | – |
| GUCAAGCAAUAUUACGGGAU | -5.19 ± 0.27 | -2.96 ± 0.21 |
| GUCAAGCAAUAUUACGGGCG | -3.08 ± 0.17 | -0.583 ± 0.13 |
| GUCAAGCAAUAUUACGGGGA | – | -2.77 ± 0.44 |
| GUCAAGCAAUAUUACGGUAC | -3.07 ± 0.15 | -0.924 ± 0.11 |
| GUCAAGCAAUAUUACGGUGA | -2.82 ± 0.21 | -2.22 ± 0.21 |

| Sequence | self-splicing fitness (ln) (30 °C) | self-splicing fitness (ln) (37 °C) |
| --- | --- | --- |
| GUCAAGCAAUAUUACGUAAG | -2.15 ± 0.073 | -1.57 ± 0.11 |
| GUCAAGCAAUAUUACGUAGG | -3.17 ± 0.14 | -2.28 ± 0.15 |
| GUCAAGCAAUAUUACGUUCG | -2.63 ± 0.12 | -2.1 ± 0.15 |
| GUCCAGCAAUAUUACGACAA | -1.57 ± 0.14 | -0.902 ± 0.11 |
| GUCCAGCAAUAUUACGACAC | 1.02 ± 0.18 | 0.572 ± 0.24 |
| GUCCAGCAAUAUUACGACGG | -3.49 ± 0.2 | -2.66 ± 0.23 |
| GUCCAGCAAUAUUACGAGGG | -2.29 ± 0.24 | -1.78 ± 0.24 |
| GUCCAGCAAUAUUACGCACA | -1 ± 0.16 | 0.0214 ± 0.12 |
| GUCCAGCAAUAUUACGCCAU | -2.78 ± 0.15 | -1.48 ± 0.14 |
| GUCCAGCAAUAUUACGCCGG | -2.64 ± 0.17 | -2.69 ± 0.31 |
| GUCCAGCAAUAUUACGCCUC | -0.866 ± 0.12 | 0.705 ± 0.15 |
| GUCCAGCAAUAUUACGCUCG | -0.909 ± 0.15 | -1.3 ± 0.22 |
| GUCCAGCAAUAUUACGGAAG | -0.697 ± 0.079 | 0.124 ± 0.084 |
| GUCCAGCAAUAUUACGUCCC | -0.702 ± 0.12 | 0.424 ± 0.12 |
| GUCCAGCAAUAUUACGUCGA | -0.796 ± 0.2 | -0.589 ± 0.19 |
| GUCCAGCAAUAUUACGUCUU | -0.409 ± 0.081 | 0.275 ± 0.092 |
| GUCCAGCAAUAUUACGUGAA | 0.0486 ± 0.079 | 0.617 ± 0.098 |
| GUCCAGCAAUAUUACGUGCA | -1.55 ± 0.09 | -0.54 ± 0.1 |
| GUCCAGCAAUAUUACGUGCU | -4.08 ± 0.46 | 0.0205 ± 0.18 |
| GUCCAGCAAUAUUACGUGUU | -1.52 ± 0.055 | -0.617 ± 0.068 |
| GUCCAGCAAUAUUACGUUGA | -0.801 ± 0.057 | -0.239 ± 0.071 |
| GUCCAGCAAUAUUACGUUGG | -3.27 ± 0.15 | -2.13 ± 0.17 |
| GUCGAGCAAUAUUACGACCU | – | -1.74 ± 0.26 |
| GUCGAGCAAUAUUACGACGA | -3.05 ± 0.35 | -1.28 ± 0.21 |
| GUCGAGCAAUAUUACGACUA | -1.67 ± 0.23 | -1.28 ± 0.18 |

| Sequence | self-splicing fitness (ln) (30 °C) | self-splicing fitness (ln) (37 °C) |
| --- | --- | --- |
| GUCGAGCAAUAUUACGAUGU | -0.956 ± 0.059 | -0.601 ± 0.084 |
| GUCGAGCAAUAUUACGCACU | -1.47 ± 0.14 | -0.953 ± 0.18 |
| GUCGAGCAAUAUUACGCAUG | -3.47 ± 0.25 | -2.43 ± 0.22 |
| GUCGAGCAAUAUUACGCAUU | -2.45 ± 0.27 | -0.95 ± 0.25 |
| GUCGAGCAAUAUUACGCCAU | -2.99 ± 0.28 | -2.4 ± 0.24 |
| GUCGAGCAAUAUUACGCCUU | -1.46 ± 0.28 | -1.77 ± 0.41 |
| GUCGAGCAAUAUUACGCGUG | -1.25 ± 0.16 | -1.24 ± 0.21 |
| GUCGAGCAAUAUUACGCGUU | -1.64 ± 0.11 | -0.556 ± 0.14 |
| GUCGAGCAAUAUUACGCUGA | – | -2.01 ± 0.43 |
| GUCGAGCAAUAUUACGGACG | -1.43 ± 0.18 | -0.738 ± 0.21 |
| GUCGAGCAAUAUUACGGCCC | – | -1.43 ± 0.4 |
| GUCGAGCAAUAUUACGGCGC | -0.811 ± 0.25 | -0.631 ± 0.44 |
| GUCGAGCAAUAUUACGGCGU | -0.43 ± 0.19 | -0.689 ± 0.14 |
| GUCGAGCAAUAUUACGGUAC | -1.98 ± 0.11 | -1.91 ± 0.16 |
| GUCGAGCAAUAUUACGGUCG | -2.44 ± 0.22 | -1.94 ± 0.28 |
| GUCGAGCAAUAUUACGGUCU | -3.35 ± 0.28 | -1.12 ± 0.18 |
| GUCGAGCAAUAUUACGUGUA | -3.26 ± 0.2 | -2.12 ± 0.19 |
| GUCUAGCAAUAUUACGAACA | -1.13 ± 0.13 | -0.831 ± 0.11 |
| GUCUAGCAAUAUUACGAACC | -1.25 ± 0.19 | -0.145 ± 0.28 |
| GUCUAGCAAUAUUACGACAU | -0.643 ± 0.014 | -0.146 ± 0.032 |
| GUCUAGCAAUAUUACGAGUG | -1.99 ± 0.1 | -1.05 ± 0.1 |
| GUCUAGCAAUAUUACGCGCG | -1.36 ± 0.15 | -0.687 ± 0.14 |
| GUCUAGCAAUAUUACGCGUG | -0.894 ± 0.058 | -0.777 ± 0.072 |
| GUCUAGCAAUAUUACGCUAG | -2.97 ± 0.32 | -2.31 ± 0.31 |
| GUCUAGCAAUAUUACGCUUA | -0.87 ± 0.077 | 0.645 ± 0.097 |

| Sequence | self-splicing fitness (ln) (30 °C) | self-splicing fitness (ln) (37 °C) |
| --- | --- | --- |
| GUCUAGCAAUAUUACGGCGA | -0.49 ± 0.22 | -0.132 ± 0.21 |
| GUCUAGCAAUAUUACGGCGG | -2.66 ± 0.42 | -2.32 ± 0.4 |
| GUCUAGCAAUAUUACGGCUG | -2.04 ± 0.18 | -1.91 ± 0.21 |
| GUCUAGCAAUAUUACGGGCG | -1.66 ± 0.28 | -0.341 ± 0.17 |
| GUCUAGCAAUAUUACGGGCU | -3.5 ± 0.27 | -3.73 ± 0.3 |
| GUCUAGCAAUAUUACGGGUA | -1.28 ± 0.11 | -0.285 ± 0.09 |
| GUCUAGCAAUAUUACGGUAU | -0.441 ± 0.1 | 0.315 ± 0.11 |
| GUCUAGCAAUAUUACGUAAA | -0.871 ± 0.085 | 0.379 ± 0.092 |
| GUCUAGCAAUAUUACGUCCA | -1.07 ± 0.31 | -0.455 ± 0.21 |
| GUCUAGCAAUAUUACGUCCC | 0.0985 ± 0.14 | -0.0539 ± 0.14 |
| GUCUAGCAAUAUUACGUCUA | -1.33 ± 0.23 | -1.22 ± 0.16 |
| GUCUAGCAAUAUUACGUGUA | -0.862 ± 0.084 | -0.516 ± 0.086 |
| GUGAAGCAAUAUUACGAAGA | -0.478 ± 0.086 | -1.11 ± 0.14 |
| GUGAAGCAAUAUUACGAAUG | -0.846 ± 0.075 | -0.708 ± 0.11 |
| GUGAAGCAAUAUUACGAGAU | -2.25 ± 0.16 | -0.51 ± 0.19 |
| GUGAAGCAAUAUUACGAUGA | -0.639 ± 0.075 | 0.631 ± 0.093 |
| GUGAAGCAAUAUUACGCAAU | -0.705 ± 0.088 | -0.623 ± 0.12 |
| GUGAAGCAAUAUUACGCGAG | -0.336 ± 0.057 | -0.0325 ± 0.07 |
| GUGAAGCAAUAUUACGCGGC | -2.03 ± 0.33 | -1.24 ± 0.4 |
| GUGAAGCAAUAUUACGCGGG | -2.8 ± 0.19 | -1.55 ± 0.2 |
| GUGAAGCAAUAUUACGCUGC | -3.05 ± 0.21 | -2.19 ± 0.21 |
| GUGAAGCAAUAUUACGCUUU | -4.83 ± 0.36 | -2.84 ± 0.43 |
